The target in assay [1] is synthetic HPV16 virus-like particles (L1 and L2) purified from CV-1 cells infected with pLC201VV (human papillomavirus type 16) (UniProt P03101). Put plainly: ELISA, denatured particles coated in carbonate buffer pH 9.6. Background: In an ELISA, binding on a coated surface is turned into a signal by an enzyme label.
Assay [2] has the same target. Put plainly: ELISA, native VLPs coated in PBS pH 7.5.

Data on one substance can be found in patent publication US20040214331A1.

UniProt P03101, sequence (P03101 whole entry, chain 1 of 2): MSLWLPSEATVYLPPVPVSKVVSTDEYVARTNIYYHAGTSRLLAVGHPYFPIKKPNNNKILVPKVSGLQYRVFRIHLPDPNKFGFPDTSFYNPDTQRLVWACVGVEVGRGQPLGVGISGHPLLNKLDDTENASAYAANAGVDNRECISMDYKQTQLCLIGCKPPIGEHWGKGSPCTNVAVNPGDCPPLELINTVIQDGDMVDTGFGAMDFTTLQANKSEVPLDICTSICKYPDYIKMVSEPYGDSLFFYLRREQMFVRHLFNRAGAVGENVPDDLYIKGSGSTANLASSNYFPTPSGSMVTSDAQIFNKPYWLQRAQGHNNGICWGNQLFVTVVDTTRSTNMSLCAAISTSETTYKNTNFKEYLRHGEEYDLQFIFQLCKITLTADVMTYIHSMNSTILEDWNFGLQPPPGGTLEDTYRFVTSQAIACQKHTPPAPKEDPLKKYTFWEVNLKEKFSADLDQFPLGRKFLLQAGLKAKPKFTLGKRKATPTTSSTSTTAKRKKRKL
UniProt P03101, sequence (P03107 whole entry, chain 2 of 2, further chain): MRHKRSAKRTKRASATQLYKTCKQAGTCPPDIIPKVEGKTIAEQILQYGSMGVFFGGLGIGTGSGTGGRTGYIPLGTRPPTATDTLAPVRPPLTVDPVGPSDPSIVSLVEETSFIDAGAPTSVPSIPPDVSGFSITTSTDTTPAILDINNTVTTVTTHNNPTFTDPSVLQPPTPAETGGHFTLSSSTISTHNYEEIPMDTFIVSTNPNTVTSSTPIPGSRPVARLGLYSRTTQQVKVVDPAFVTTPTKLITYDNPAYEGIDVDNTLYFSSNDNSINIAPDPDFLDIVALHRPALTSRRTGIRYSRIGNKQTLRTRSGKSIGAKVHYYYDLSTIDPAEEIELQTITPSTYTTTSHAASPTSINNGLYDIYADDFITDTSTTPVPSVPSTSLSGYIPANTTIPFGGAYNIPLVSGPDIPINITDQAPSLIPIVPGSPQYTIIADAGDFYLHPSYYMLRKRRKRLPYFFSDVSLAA

With “anti-HPV16 L1 monoclonal antibody Camvir 1”, the OD in assay [1] was 0.107 OD; in assay [2], 0.064 OD.
